The results in this text go back to article PMC8041777, “Protein kinase A controls the hexosamine pathway by tuning the feedback inhibition of GFAT-1” (Nature Communications, 2021).

First the molecules themselves.
B1: GFAT-1 (human GFAT-1 isoform 2, hGFAT1) (Homo sapiens; R306H) (protein)
chain: CGIFAYLNYHVPRTRREILETLIKGLQRLEYRGYDSAGVGFDGGNDKDWEANACKIQLIKKKGKVKALDEEVHKQQDMDLDIEFDVHLGIAHTRWATHGEPSPVNSHPQRSDKNNEFIVIHNGIITNYKDLKKFLESKGYDFESETDTETIAKLVKYMYDNRESQDTSFTTLVERVIQQLEGAFALVFKSVHFPGQAVGTRRGSPLLIGVRSEHKLSTDHIPILYRTGKDKKGSCNLSRVDSTTCLFPVEEKAVEYYFASDASAVIEHTNRVIFLEDDDVAAVVDGHLSIHRIKRTAGDHPGRAVQTLQMELQQIMKGNFSSFMQKEIFEQPESVVNTMRGRVNFDDYTVNLGGLKDHIKEIQRCRRLILIACGTSYHAGVATRQVLEELTELPVMVELASDFLDRNTPVFRDDVCFFLSQSGETADTLMGLRYCKERGALTVGITNTVGSSISRETDCGVHINAGPEIGVASTKAYTSQFVSLVMFALMMCDDRISMQERRKEIMLGLKRLPDLIKEVLSMDDEIQKLATELYHQKSVLIMGRGYHYATCLEGALKIKEITYMHSEGILAGELKHGPLALVDKLMPVIMIIMRDHTYAKCQNALQQVVARQGRPVVICDKEDTETIKNTKRTIKVPHSVDCLQGILSVIPLQLLAFHLAVLRGYDVDFPRNLAKSVTVE
notes: full length, internal His6-tag between Gly299 and Asp300 (kept), expressed in Sf21 insect cells (MultiBac), Ni-NTA and SEC purified
B2: GFAT-1 (human GFAT-1 isoform 2, hGFAT1) (Homo sapiens; S308D) (protein)
chain: CGIFAYLNYHVPRTRREILETLIKGLQRLEYRGYDSAGVGFDGGNDKDWEANACKIQLIKKKGKVKALDEEVHKQQDMDLDIEFDVHLGIAHTRWATHGEPSPVNSHPQRSDKNNEFIVIHNGIITNYKDLKKFLESKGYDFESETDTETIAKLVKYMYDNRESQDTSFTTLVERVIQQLEGAFALVFKSVHFPGQAVGTRRGSPLLIGVRSEHKLSTDHIPILYRTGKDKKGSCNLSRVDSTTCLFPVEEKAVEYYFASDASAVIEHTNRVIFLEDDDVAAVVDGRLDIHRIKRTAGDHPGRAVQTLQMELQQIMKGNFSSFMQKEIFEQPESVVNTMRGRVNFDDYTVNLGGLKDHIKEIQRCRRLILIACGTSYHAGVATRQVLEELTELPVMVELASDFLDRNTPVFRDDVCFFLSQSGETADTLMGLRYCKERGALTVGITNTVGSSISRETDCGVHINAGPEIGVASTKAYTSQFVSLVMFALMMCDDRISMQERRKEIMLGLKRLPDLIKEVLSMDDEIQKLATELYHQKSVLIMGRGYHYATCLEGALKIKEITYMHSEGILAGELKHGPLALVDKLMPVIMIIMRDHTYAKCQNALQQVVARQGRPVVICDKEDTETIKNTKRTIKVPHSVDCLQGILSVIPLQLLAFHLAVLRGYDVDFPRNLAKSVTVE
notes: as for B1
B3: GFAT-1 (human GFAT-1 isoform 2, hGFAT1) (Homo sapiens; L508R) (protein)
chain: CGIFAYLNYHVPRTRREILETLIKGLQRLEYRGYDSAGVGFDGGNDKDWEANACKIQLIKKKGKVKALDEEVHKQQDMDLDIEFDVHLGIAHTRWATHGEPSPVNSHPQRSDKNNEFIVIHNGIITNYKDLKKFLESKGYDFESETDTETIAKLVKYMYDNRESQDTSFTTLVERVIQQLEGAFALVFKSVHFPGQAVGTRRGSPLLIGVRSEHKLSTDHIPILYRTGKDKKGSCNLSRVDSTTCLFPVEEKAVEYYFASDASAVIEHTNRVIFLEDDDVAAVVDGRLSIHRIKRTAGDHPGRAVQTLQMELQQIMKGNFSSFMQKEIFEQPESVVNTMRGRVNFDDYTVNLGGLKDHIKEIQRCRRLILIACGTSYHAGVATRQVLEELTELPVMVELASDFLDRNTPVFRDDVCFFLSQSGETADTLMGLRYCKERGALTVGITNTVGSSISRETDCGVHINAGPEIGVASTKAYTSQFVSLVMFARMMCDDRISMQERRKEIMLGLKRLPDLIKEVLSMDDEIQKLATELYHQKSVLIMGRGYHYATCLEGALKIKEITYMHSEGILAGELKHGPLALVDKLMPVIMIIMRDHTYAKCQNALQQVVARQGRPVVICDKEDTETIKNTKRTIKVPHSVDCLQGILSVIPLQLLAFHLAVLRGYDVDFPRNLAKSVTVE
notes: as for B1

Substrate in the data set: NC(=O)CC[C@H](N)C(=O)O
Description: purified protein. The format is biochemical, Homo sapiens. Particulars: 6 mM Frc6P, 1 mM APAD, 50 mM KCl, 100 mM potassium phosphate pH 7.5, 37 °C.
For the protein B1, the Km was found to be 1600 ± 270 µM, the kcat came to 4.8 ± 0.26 s⁻¹ and the kcat/Km was determined as 3000 M⁻¹ s⁻¹.
Take B2: the Km was determined as 1300 ± 230 µM, the turnover number (kcat) stood at 1.5 ± 0.08 s⁻¹ and the kcat/Km came out at 1200 M⁻¹ s⁻¹.
As for B3, the Km amounted to 1000 ± 100 µM, the kcat stood at 3 ± 0.08 s⁻¹ and the kcat/Km stood at 3000 M⁻¹ s⁻¹.

The Km is the concentration of substrate that gives half-maximal velocity. The kcat is the number of substrate molecules converted per active site and unit of time at saturation. What is called kcat/Km is the turnover number divided by the Michaelis constant.
